Test results taken from article PMC2987719.

Columns and labels:
Settings in all cases: remark: other sources report otherwise
[1] = molecular target: myc-LRRK2 (human wild-type full-length leucine rich repeat kinase 2, myc-tagged) (human) (UniProt Q5S007); test: SEC
[2] = molecular target: myc-LRRK2 (human wild-type full-length leucine rich repeat kinase 2, myc-tagged) (human) (UniProt Q5S007); test: native gel or EMSA
[3] = molecular target: myc-LRRK2 (human wild-type full-length leucine rich repeat kinase 2, myc-tagged) (human) (UniProt Q5S007); test: glycerol velocity gradient

Measured: stoichiometry N

myc-LRRK2 (human wild-type full-length leucine rich repeat kinase 2, myc-tagged), Q5S007 1-2527
2: all assays above
